{"source": "patent US12269859B2", "about": "“Synthetic immune receptors and methods of use thereof” (Angeles Therapeutics, Inc., priority 2016, dated 2025)", "molecules": {"B1": {"name": "041416-U01 (protein)", "chain": "MALPVTALLLPLALLLHAARPDIVLTQSPATLSLSPGDRATISCRASESVTILGSHLIYWYQQKPGQPPRLLIQLASNVQTGVPARFSGSGSRTDFTLTISSVEPEDFAVYYCLQSRTIPRTFGQGTKLEIKRLEGKPIPNPLLGLDSTGSGEDLKNVFPPEVAVFEPSKAEIAHTQKATLVCLATGFYPDHVELSWWVNGKEVHSGVCTDPQPLKEQPALNDSRYCLSSRLRVSATFWQNPRNHFRCQVQFYGLSENDEWTQDRAKPVTQIVSAEAWGRADCGITSASYHQGVLSATILYEILLGKATLYAVLVSALVLMAMVKRKDSRGRAKRSGSGATNFSLLKQAGDVEENPGPTSMDWIWRILFLVGAATGAHSFEQVQLVQSGPEVKKPGESVKISCKASGYTFRHYSMNWVKQAPGQGLKWMGRINTESGVPIYADDFKGRFSFTVDTSASTAYLEISSLTSEDTAVYFCSNDYLYSLDFWGQGTTLTVSSTREQKLISEEDGSGTPFPSLAPPIMLLVDGKQQMVVVCLVLDVAPPGLDSPIWFSAGNGSALDAFTYGPSPATDGTWTNLAHLSLPSEELASWEPLVCHTGPGAEGHSRSTQPMHLSGEASTARTCPQEPLRGTPGGALWLGVLRLLLFKLLLFDLLLTCSCLCDPAGPLPSPATTTRLRALGSHRLHPATETGGREATSSPRPQPRDRRWGDTPPGRKPGSPVRAKRSGSGVKQTLNFDLLKLAGDVESNPGPSRGHMTEYKPTVRLATRDDVPRAVRTLAAAFADYPATRHTVDPDRHIERVTELQELFLTRVGLDIGKVWVADDGAAVAVWTTPESVEAGAVFAEIGPRMAELSGSRLAAQQQMEGLLAPHRPKEPAWFLATVGVSPDHQGKGLGSAVVLPGVEAAERAGVPAFLETSAPRNLPFYERLGFTVTADVEVPEGPRTWCMTRKPGA", "modifications": "Polynucleotide encoding a Synthetic Immune Receptor (SIR)"}, "B2": {"name": "011317-A06 (protein)", "chain": "MALPVTALLLPLALLLHAARPLEQKLISEEDLGSGDRPDPAVYQLRDSKSSDKSVCLFTDFDSQTNVSQSKDSDVYITDKCVLDMRSMDFKSNSAVAWSNKSDFACANAFNNSIIPEDTFFPSPESSCDVKLVEKSFETDTNLNFQNLSVIGFRILLLKVAGFNLLMTLRLWSSSSRAKRSGSGVKQTLNFDLLKLAGDVESNPGPTSMALPVTALLLPLALLLHAARPEIVLTQSPDFQSVTPKEKVTITCRASESVDTFGISFMNWFQQKPDQSPKLLIHAASNQGSGVPSRFSGSGSGTDFTLTINSLEAEDAATYYCQQSKEVPFTFGGGTKVEIKGGGGSGGGGSGGGGSEVQLVESGGGLVQPGGSLRLSCAASGFTFSSSWMNWVRQAPGKGLEWVGRIYPGDGDTNYNGKFKGRFTISRDDSKNSLYLQMNSLKTEDTAVYYCARSGFITTVLDFDYWGQGTLVTVSSTRGKPIPNPLLGLDSTGSGEDLKNVFPPEVAVFEPSEAEISHTQKATLVCLATGFYPDHVELSWWVNGKEVHSGVCTDPQPLKEQPALNDSRYCLSSRLRVSATFWQNPRNHFRCQVQFYGLSENDEWTQDRAKPVTQIVSAEAWGRADCGFTSESYQQGVLSATILYEILLGKATLYAVLVSALVLMAMVKRKDSRGRAKRSGSGATNFSLLKQAGDVEENPGPSRGHMTEYKPTVRLATRDDVPRAVRTLAAAFADYPATRHTVDPDRHIERVTELQELFLTRVGLDIGKVWVADDGAAVAVWTTPESVEAGAVFAEIGPRMAELSGSRLAAQQQMEGLLAPHRPKEPAWFLATVGVSPDHQGKGLGSAVVLPGVEAAERAGVPAFLETSAPRNLPFYERLGFTVTADVEVPEGPRTWCMTRKPGA"}, "B3": {"name": "010417-I04 (protein)", "chain": "MALPVTALLLPLALLLHAARPLEGKPIPNPLLGLDSTGSGEDLKNVFPPEVAVFEPSKAEIAHTQKATLVCLATGFYPDHVELSWWVNGKEVHSGVCTDPQPLKEQPALNDSRYCLSSRLRVSATFWQNPRNHFRCQVQFYGLSENDEWTQDRAKPVTQIVSAEAWGRADCGITSASYHQGVLSATILYEILLGKATLYAVLVSALVLMAMVKRKDSRGRAKRSGSGATNFSLLKQAGDVEENPGPTSMALPVTALLLPLALLLHAARPEIVLTQSPDFQSVTPKEKVTITCRASESVDTFGISFMNWFQQKPDQSPKLLIHAASNQGSGVPSRFSGSGSGTDFTLTINSLEAEDAATYYCQQSKEVPFTFGGGTKVEIKGGGGSGGGGSGGGGSEVQLVESGGGLVQPGGSLRLSCAASGFTFSSSWMNWVRQAPGKGLEWVGRIYPGDGDTNYNGKFKGRFTISRDDSKNSLYLQMNSLKTEDTAVYYCARSGFITTVLDFDYWGQGTLVTVSSTREQKLISEEDLGSGTPFPSLAPPIMLLVDGKQQMVVVCLVLDVAPPGLDSPIWFSAGNGSALDAFTYGPSPATDGTWTNLAHLSLPSEELASWEPLVCHTGPGAEGHSRSTQPMHLSGEASTARTCPQEPLRGTPGGALWLGVLRLLLFKLLLFDLLLTCSCLCDPAGPLPSPATTTRLRALGSHRLHPATETGGREATSSPRPQPRDRRWGDTPPGRKPGSPVRAKRSGSGVKQTLNFDLLKLAGDVESNPGPSRSRGHMTEYKPTVRLATRDDVPRAVRTLAAAFADYPATRHTVDPDRHIERVTELQELFLTRVGLDIGKVWVADDGAAVAVWTTPESVEAGAVFAEIGPRMAELSGSRLAAQQQMEGLLAPHRPKEPAWFLATVGVSPDHQGKGLGSAVVLPGVEAAERAGVPAFLETSAPRNLPFYERLGFTVTADVEVPEGPRTWCMTRKPGA"}, "B4": {"name": "011317-B06 (protein)", "chain": "MALPVTALLLPLALLLHAARPLEQKLISEEDLGSGDRPDPAVYQLRDSKSSDKSVCLFTDFDSQTNVSQSKDSDVYITDKCVLDMRSMDFKSNSAVAWSNKSDFACANAFNNSIIPEDTFFPSPESSCDVKLVEKSFETDTNLNFQNLSVIGFRILLLKVAGFNLLMTLRLWSSSSRAKRSGSGVKQTLNFDLLKLAGDVESNPGPTSMALPVTALLLPLALLLHAARPDIVMTQSPATLSLSPGERATLSCRSSKSLQNVNGNTYLYWFQQKPGQSPQLLIYRMSNLNSGVPDRFSGSGSGTEFTLTISSLEPEDFAVYYCMQHLEYPITFGAGTKLEIKGGGGSGGGGSGGGGSEVQLVESGGGLVKPGGSLKLSCAASGYTFTSYVMHWVRQAPGKGLEWIGYINPYNDGTKYNEKFQGRVTISSDKSISTAYMELSSLRSEDTAMYYCARGTYYYGTRVFDYWGQGTLVTVSSTRGKPIPNPLLGLDSTGSGEDLKNVFPPEVAVFEPSEAEISHTQKATLVCLATGFYPDHVELSWWVNGKEVHSGVCTDPQPLKEQPALNDSRYCLSSRLRVSATFWQNPRNHFRCQVQFYGLSENDEWTQDRAKPVTQIVSAEAWGRADCGFTSESYQQGVLSATILYEILLGKATLYAVLVSALVLMAMVKRKDSRGRAKRSGSGATNFSLLKQAGDVEENPGPSRGHMTEYKPTVRLATRDDVPRAVRTLAAAFADYPATRHTVDPDRHIERVTELQELFLTRVGLDIGKVWVADDGAAVAVWTTPESVEAGAVFAEIGPRMAELSGSRLAAQQQMEGLLAPHRPKEPAWFLATVGVSPDHQGKGLGSAVVLPGVEAAERAGVPAFLETSAPRNLPFYERLGFTVTADVEVPEGPRTWCMTRKPGA"}}, "tested_on": "target antigen-expressing cell line", "experiment": "Jurkat NFAT-GFP assay, coculture with target cell lines expressing the respective target antigen (summary Table 10A)", "format": "cell-based, human", "design": "key: The signs +/−, +, 2+ etc. after the name of the cell lines indicate the relative degree of positivity on the Jurkat-NFAT-GFP assay as measured by the % GFP positive cells; +: relative degree of positivity on the Jurkat-NFAT-GFP assay as measured by the % GFP positive cells; 2+: relative degree of positivity on the Jurkat-NFAT-GFP assay as measured by the % GFP positive cells", "settings": "relative % GFP positive cells; for NFAT-GFP ASSAY Positive Cell lines: NALM6: SIR-expressing Jurkat-NFAT-GFP cells cocultured with NALM6; for NFAT-GFP ASSAY Positive Cell lines: RAJI: SIR-expressing Jurkat-NFAT-GFP cells cocultured with RAJI", "how_it_was_run": "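Positivity is scored when SIR-expressing reporter Jurkat cells show more GFP-positive cells than parental controls after coculture with the antigen-bearing line. Effector-to-target ratio is about 1:2, coculture lasts roughly 4–18 hours, and GFP is quantified by FACS.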", "data": [{"molecule": "B1", "values": [{"measurement": "NFAT-GFP ASSAY Positive Cell lines: L363", "setting": "SIR-expressing Jurkat-NFAT-GFP cells cocultured with L363", "value": "L363 (2+), U266"}, {"measurement": "NFAT-GFP ASSAY Positive Cell lines: U266", "setting": "SIR-expressing Jurkat-NFAT-GFP cells cocultured with U266", "value": "(2+)"}]}, {"molecule": "B2", "values": [{"measurement": "NFAT-GFP ASSAY Positive Cell lines: NALM6", "value": "(2+)"}, {"measurement": "NFAT-GFP ASSAY Positive Cell lines: RAJI", "value": "RAJI (2+), NALM6"}]}, {"molecule": "B3", "values": [{"measurement": "NFAT-GFP ASSAY Positive Cell lines: NALM6", "value": "(+/−)"}, {"measurement": "NFAT-GFP ASSAY Positive Cell lines: RAJI", "value": "RAJI (+), NALM6"}]}, {"molecule": "B4", "values": [{"measurement": "NFAT-GFP ASSAY Positive Cell lines: NALM6", "value": "(2+)"}]}]}
